Results on two substances are retold here after patent EP0832971B1.

Where “and” joins values, the source holds several entries; their conditions need not be identical. Identical values can stand only once.

For test [1], the target named is HIV-1 strain HTLV-IIIB (virus grown in H9 cells; envelope glycoprotein gp120 on the virus) (HIV-1 strain HTLV-IIIB) (UniProt P04578). Description: cell-based or functional assay.
Test [2] has as its target gp120, the major envelope glycoprotein of HIV-I (radioiodinated 125I-gp120; unlabeled purified gp120) (HIV-1). In words: saturation binding of 125I-gp120 in solution, immunoprecipitation with OKT4, Scatchard analysis.

In the case of “CD4T (product of pRKCD4T: CD4 fused after residue 368 of mature CD4 to 9 residues coded by pBR322) (from UniProt P01730 26-393) (receptor)”, in test [1], the Indirect immunofluorescence (% positive cells), 1:4 inhibitor supernatant (% positive cells) is 18 and 16.1; the Indirect immunofluorescence (% positive cells), undil. inhibitor supernatant (% positive cells) is 0.4 and 0.8; the Reverse transcriptase (cpm/ml x 10^5), 1:4 inhibitor supernatant is 594000 cpm/ml and 372000 cpm/ml; the Reverse transcriptase (cpm/ml x 10^5), undil. inhibitor supernatant was 11000 cpm/ml and 15000 cpm/ml. In addition, the Kd in test [2] amounted to 0.83 nM.

Turning to “gDCD4T (first 27 residues of mature HSV type I gD glycoprotein fused to mature CD4T; product of pRKGDCD4T) (from UniProt Q69091 1-27; P01730 1-368) (receptor)”, in test [1], the Indirect immunofluorescence (% positive cells), 1:4 inhibitor supernatant (% positive cells) was 26.8 and 36.1; the Reverse transcriptase (cpm/ml x 10^5), 1:4 inhibitor supernatant is 992000 cpm/ml and 1.13e+06 cpm/ml; the Reverse transcriptase (cpm/ml x 10^5), undil. inhibitor supernatant was 14000 cpm/ml and 23000 cpm/ml. In test [2], this substance yielded a dissociation constant (Kd) of 0.72 nM.
